Data as given in publication PMC12395300 (ACS Central Science, 2025).

Target: PD1 (as used in the ELISA) (Mus musculus, UniProt Q02242)
Sequence (Q02242 25-288): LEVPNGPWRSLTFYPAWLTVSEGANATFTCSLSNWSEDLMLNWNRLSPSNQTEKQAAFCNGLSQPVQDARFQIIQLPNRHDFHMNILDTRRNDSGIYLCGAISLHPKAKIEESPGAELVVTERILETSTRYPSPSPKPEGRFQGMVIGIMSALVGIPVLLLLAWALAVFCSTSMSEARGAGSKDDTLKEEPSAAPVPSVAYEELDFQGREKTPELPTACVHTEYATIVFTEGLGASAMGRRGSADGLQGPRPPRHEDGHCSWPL

binding result: binds
B1: anti-hPD1 (pembrolizumab) (antibody, V domains shown)
VH: QVQLVQSGVEVKKPGASVKVSCKASGYTFTNYYMYWVRQAPGQGLEWMGGINPSNGGTNFNEKFKNRVTLTTDSSTTTAYMELKSLQFDDTAVYYCARRDYRFDMGFDYWGQGTTVTVSS
VL: EIVLTQSPATLSLSPGERATLSCRASKGVSTSGYSYLHWYQQKPGQAPRLLIYLASYLESGVPARFSGSGSGTDFTLTISSLEPEDFAVYYCQHSRDLPLTFGGGTKVEIK
